We go through one protein from article PMC7173060 (Journal of Molecular Biology, 2004).

The data set deals with the molecule itself. Put plainly: cross-linking.

B1: full-length rabies virus phosphoprotein (P), C-terminal His-tagged (natural protein)
chain: MSKIFVNPSAIRAGLADLEMAEETVDLINRNIEDNQAHLQGEPIEVDNLPEDMKRLHLDDEKSSNLGEMVRVGEGKYREDFQMDEGEDPNLLFQSYLDNVGVQIVRQMRSGERFLKIWSQTVEEIVSYVTVNFPNPPRRSSEDKSTQTTGRELKKETTSAFSQRESQPSKARMVAQVAPGPPALEWSATNEEDDLSVEAEIAHQIAESFSKKYKFPSRSSGIFLYNFEQLKMNLDDIVKEAKNVPGVTRLAHDGSKIPLRCVLGWVALANSKKFQLLVEADKLSKIMQDDLNRYTSC
In the case of B1, the binding result is reported as “binds”.
